Assay results as given in publication PMC5115805, “The Chloroplast SRP Systems of Chaetosphaeridium globosum and Physcomitrella patens as Intermediates in the Evolution of SRP-Dependent Protein Transport in Higher Plants” (PLoS ONE, 2016).
“And” between values parts separate entries of the source, which are not always exact repeats. Equal entries are not always repeated.

Tests used:
[1] = target: At-His-cpSRP43, fluorescently labeled (Arabidopsis thaliana) (UniProt O22265); assay: MST; labeled cpSRP43 (20 nM) or eGFP-Cg-43 (75 nM) constant, cpSRP54 constructs titrated; 300 mM NaCl, 2.7 mM KCl, 10 mM Na2HPO4, 1.8 mM K2HPO4, 5 mM MgCl2, 2 mM DTT, 0.05% Tween20, pH 7.3; Monolith NT.115, MST power 20%, LED power 20%
[2] = target: Pp-His-cpSRP43, fluorescently labeled (Physcomitrella patens); assay: as above
[3] = tested on: Pp-cpSRP54-His (Physcomitrella patens); assay: MST; settings: 5 mM Mg2+, MST: 300 mM NaCl, 2.7 mM KCl, 10 mM Na2HPO4, 1.8 mM K2HPO4, 5 mM MgCl2, 2 mM DTT, 0.05% Tween20, pH 7.3, labeled Pp-cpSRP54 10-20 nM, temperature not stated …
[4] = target: Cg-His-eGFP-cpSRP43 (Chaetosphaeridium globosum); assay: MST; labeled cpSRP43 (20 nM) or eGFP-Cg-43 (75 nM) constant, cpSRP54 constructs titrated; 300 mM NaCl, 2.7 mM KCl, 10 mM Na2HPO4, 1.8 mM K2HPO4, 5 mM MgCl2, 2 mM DTT, 0.05% Tween20, pH 7.3; Monolith NT.115, MST power 20%, LED power 20%
[5] = target: Chaetosphaeridium globosum cpSRP43(D189Y) (Chaetosphaeridium globosum); assay: as above
[6] = target: T1, At-His-cpSRP54 (Arabidopsis thaliana, UniProt P37107 76-564); assay: as above; settings: both partners purified
T1 construct: cpSRP54 of Arabidopsis thaliana; the results call it 'full-length' as against the M-domain; also called At-His-54; At-54; source: E. coli BL21(DE3) or Rosetta2(DE3), purified (Ni-NTA, desalted); not shown: His tag, N-terminal, kept
T1 sequence (looked up): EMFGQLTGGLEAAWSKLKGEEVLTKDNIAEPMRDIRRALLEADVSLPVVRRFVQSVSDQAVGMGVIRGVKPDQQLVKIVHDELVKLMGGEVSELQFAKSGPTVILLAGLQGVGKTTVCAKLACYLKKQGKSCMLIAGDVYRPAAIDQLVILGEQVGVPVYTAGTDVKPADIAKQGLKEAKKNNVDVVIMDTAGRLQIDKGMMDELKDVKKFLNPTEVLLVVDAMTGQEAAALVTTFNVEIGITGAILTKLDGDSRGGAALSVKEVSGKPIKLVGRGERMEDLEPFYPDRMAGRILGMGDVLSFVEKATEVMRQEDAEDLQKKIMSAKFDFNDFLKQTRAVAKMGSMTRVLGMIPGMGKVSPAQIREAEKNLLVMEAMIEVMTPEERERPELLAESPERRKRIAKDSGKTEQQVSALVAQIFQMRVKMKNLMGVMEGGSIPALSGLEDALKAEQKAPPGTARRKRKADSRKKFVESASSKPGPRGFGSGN

[7] = target: T1, At-His-cpSRP54; assay: pull-down; GST-cpSRP43 constructs on glutathione-sepharose, 20 μg of GST- and His-fusion constructs; eluates by SDS-PAGE and Coomassie staining; settings: both partners purified

Molecule: At-His-cpSRP54M (domain or fragment)
- Kd [1]: 60 nM and 90 nM

Molecule: Pp-cpSRP54-His (natural protein)
- Kd [2]: 9000 nM

Molecule: Ot-cpSRP RNA
- Kd [3]: 185 nM

Molecule: Pp-cpSRP RNA
- Kd [3]: 1300 nM

Molecule: Ec-SRP RNA
- Kd ([3]; one of two replicate values): 17 nM and 27 nM

Molecule: Cg-His-cpSRP54M (domain or fragment)
- Kd [4]: 11000 nM
- Kd [5]: 10000 nM and 11000 nM

B1: At-His-cpSRP43, fluorescently labeled (natural protein, Arabidopsis thaliana, UniProt O22265 57-373, looked up)
chain: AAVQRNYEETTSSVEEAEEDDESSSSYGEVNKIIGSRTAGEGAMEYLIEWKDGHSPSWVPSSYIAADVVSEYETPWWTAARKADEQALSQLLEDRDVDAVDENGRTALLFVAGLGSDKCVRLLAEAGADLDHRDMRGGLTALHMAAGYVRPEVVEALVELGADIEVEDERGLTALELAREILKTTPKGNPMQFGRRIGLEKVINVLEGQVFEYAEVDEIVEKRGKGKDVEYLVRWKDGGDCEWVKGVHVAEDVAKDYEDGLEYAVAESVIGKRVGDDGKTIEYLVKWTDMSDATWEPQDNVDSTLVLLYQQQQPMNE
modifications: fluorescent label on amines (Monolith NT.115 Protein Labeling Kit RED-NHS)
notes: cpSRP43 of Arabidopsis thaliana; the results speak of the 'full-length Arabidopsis thaliana cpSRP subunits'; the construct is not described among the plasmids; also called Ath-His-cpSRP43; At-43; source: E. coli BL21(DE3) or Rosetta2(DE3), purified (Ni-NTA, desalted); not shown: His tag, N-terminal, kept
- Kd [6]: 50 nM and 60 nM

B2: At-GST-cpSRP43 (natural protein, Arabidopsis thaliana, UniProt O22265 57-373, looked up)
chain: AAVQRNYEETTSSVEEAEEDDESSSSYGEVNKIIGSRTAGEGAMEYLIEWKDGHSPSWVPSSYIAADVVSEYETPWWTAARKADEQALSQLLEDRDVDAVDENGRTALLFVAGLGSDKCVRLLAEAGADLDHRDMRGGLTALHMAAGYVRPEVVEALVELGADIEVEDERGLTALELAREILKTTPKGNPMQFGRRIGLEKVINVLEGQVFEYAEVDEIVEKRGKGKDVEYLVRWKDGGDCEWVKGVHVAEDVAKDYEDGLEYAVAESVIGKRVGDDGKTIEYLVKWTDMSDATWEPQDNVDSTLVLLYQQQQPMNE
notes: cpSRP43 of Arabidopsis thaliana in pGEX4T3; also called At-GST-43; GST-cpSRP43 from Arabidopsis thaliana; source: E. coli BL21(DE3) or Rosetta2(DE3), purified (glutathione-sepharose); not shown: GST, N-terminal, kept
- binding result [7]: binds

B3: At-GST-cpSRP43(Y269D) (natural protein, Arabidopsis thaliana, UniProt O22265 57-373, looked up)
chain: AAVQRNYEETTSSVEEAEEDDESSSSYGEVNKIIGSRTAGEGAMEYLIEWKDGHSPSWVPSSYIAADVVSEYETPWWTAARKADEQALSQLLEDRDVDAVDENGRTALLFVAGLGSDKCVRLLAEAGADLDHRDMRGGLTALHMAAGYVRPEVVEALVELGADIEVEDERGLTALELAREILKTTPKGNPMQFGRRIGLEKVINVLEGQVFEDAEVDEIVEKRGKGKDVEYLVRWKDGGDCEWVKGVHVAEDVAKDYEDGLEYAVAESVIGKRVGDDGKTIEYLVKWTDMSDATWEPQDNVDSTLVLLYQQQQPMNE
notes: cpSRP43 of Arabidopsis thaliana in pGEX4T3, with Y269D; made from the construct of m9; also called pGEX4T3-At-GST-cpSRP43(Y269D); source: E. coli BL21(DE3) or Rosetta2(DE3), purified (glutathione-sepharose); not shown: GST, N-terminal, kept
- binding result [7]: binds

B4: At-GST-cpSRP43(Y269E) (natural protein, Arabidopsis thaliana, UniProt O22265 57-373, looked up)
chain: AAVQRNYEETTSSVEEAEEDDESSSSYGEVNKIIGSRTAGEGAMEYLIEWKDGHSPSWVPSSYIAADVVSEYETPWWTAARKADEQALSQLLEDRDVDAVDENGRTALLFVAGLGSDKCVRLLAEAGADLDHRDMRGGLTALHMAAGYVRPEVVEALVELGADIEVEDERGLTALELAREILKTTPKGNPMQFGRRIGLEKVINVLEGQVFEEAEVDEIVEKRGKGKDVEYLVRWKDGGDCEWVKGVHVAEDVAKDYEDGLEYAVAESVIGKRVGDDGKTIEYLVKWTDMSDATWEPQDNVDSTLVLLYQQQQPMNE
notes: cpSRP43 of Arabidopsis thaliana in pGEX4T3, with Y269E; made from the construct of m9; also called pGEX4T3-At-GST-cpSRP43(Y269E); source: E. coli BL21(DE3) or Rosetta2(DE3), purified (glutathione-sepharose); not shown: GST, N-terminal, kept
- binding result [7]: binds
